Test: soluble on expression in E. coli; label from the status in PepcDB or PDB records
For “MPSKQDVLLLDYWDQWAEAYRINGKSINTVYRYKLFRKHLKSRFDGRKLNSIRPIEWQKFINDFAAGKDRKEKTTRKRPRERSKDIVTKMNSYVRGMVKAAINERILFSDFTFGTKTSGVRLEHHHHHH”, the “soluble on expression in E. coli” value was “not soluble”. With “MPSRAEDYEVLYTIGTGSYGRCQKIRRKSDGKILVWKELDYGSMTEAEKQMLVSEVNLLRELKHPNIVRYYDRIIDRTNTTLYIVMEYCEGGDLASVITKGTKERQYLDEEFVLRVMTQLTLALKECHRRSDGGHTVLHRDLKPANVFLDGKQNVKLGDFGLARILNHDTSFAKTFVGTPYYMSPEQMNRMSYNEKSDIWSLGCLLYELCALMPPFTAFSQKELAGKIREGKFRRIPYRYSDELNEIITRMLNLKDYHRPSVEEILENPLIADLVADEQRRNLERRGRQLGEPEKSQDSSPVLSELKLKEIQLQERERALKAREKRLEQKEQELCVRERLAEDKLARAENLLKSYSLLKERKFLSLASNPELLNLPSSVIKKKVHFSGESKENIMRSENSESQLTSKSKCKDLKKRLHAAQLRAQALSDIEKNYQLKSRQILGMR” the “soluble on expression in E. coli” value was “soluble”. With “MPTPAYMRIEGEKQGLITAGTFTEDSVGNIYQEGHEDEVLVQGFEHQVLLPRDPQSGQPTGQRVHKPVRITKVFDKASPLMYNALTSGEKLPKVEIKWYRTSATGTQEHYFTTVLHDAIIVDITASMPNCQDPSQAHFTHLEDVFMTYRAIDWTHEVAGTSGNDDWRTAMKA” the “soluble on expression in E. coli” value was “soluble”. For “MPTTRHYDIVIIGGGIQGAAVAQAAAALGYNVLVLEKTALAAGTSSRSSKLIHGGLRYLESGQFGLVWESLKERAALLRLAPSLVRLQPFHIPIYDQTSRDTLTIRAGLSLYALLAGLSKGAGFHSIPRRRWGELDGLSTRGLRHVFQYWDAQTDDQALTRAIMHSASSLGVELHCPAEFIHARISGEICEIEFLENNQAYQCTASSLVNAAGPWVSQVAERISPAPPAYPVELVQGTHLILEGSLDKGCYYLESPQDRRAIFALPWKQHILLGTTETVFEGAPDKALPLVSEENYLLGCFRYYFPDHGATVRERFTGLRVLPVSRNNPFGRSRETHLQCDSPESPRIVGIYGGKLTVCRATARKVLHTLRPSLPVRIPKADISQLTLKLPLEHHHHHH”, the “soluble on expression in E. coli” value was “soluble”. In the case of “MPVGRREQIVDCRSVMGLGEGGGLAQRGTFAEALKNDVVVVAMSPGRRHITKPVCEITYGIREAGIQTSVLVLNAGSGIPHDAPRGALGSTFGIKPEEAEQINRHKLCVVHFGNVISHIVYKAGLLLKYVEIPTIIVCQAPVDMEDLAKYGIKTRDVMPLEPKTKGTVVDIVTGVIRGESCPQTKIDEVIRKIKLHLNLNLEHHHHHH”, the “soluble on expression in E. coli” value is reported as “soluble”. With “MPVPDLFAEGLARGWKTYNGSRLDDDLELEADVVVVGTGAGGGTTAEILSAAGLKVLLVEEGPLKTSSDFKMQEADAYPELYQEGIGRMSKDGAITILQGRAVGGTTLINWTSSFRTPEPTLQHWAQVYGVKGHSAEDMAPWFEKMEQRLHVAPWALPPNANNDVIRLGCEKLGYHWKVIPRNVLGCWNLGYCGMGCPVNAKQSMLVTTIPATLDKGGELLYLARANRLLLDGDKVTGLECLGMDERCVAPNGRRIRVRARHYVLSGGGINTPAILLRSKAPDPSQRVGKRTFLHTVNFSAGLFDRVINPFYGAPQSIYSDHFQWDDGVTGRMSYKLEVPPLQPSLASVLLGGFGSDNALRMEQLPHTNMMLALLRDGFHPDSAEGSVGLRGDDTPVLDYRMTDYTWDGIRRAFHTMAEIQFAAGAREVRPVHSDARSAKNLQEARGIIDGLRLEIYRTRLGSAHVMGGCAMGEDPAVAVADSLGRHHHLRNLSIHDGSLFPTSIGANPQLSVYGLTAQLASALAERLARALEHHHHHH” the “soluble on expression in E. coli” value was “not soluble”. In the case of “MPVSPEREQALSEFVAAVQAREDVQSELNEITTLDQLKTIVDSIEPALTGAALIPFEQATSPPKITVDSGVLDKNIPWRLLRCPGGPLVLQMICTRVNFALWIESC”, the “soluble on expression in E. coli” value is reported as “not soluble”. In the case of “MPVTLSFGNHQNYTLNESRLAHLLSADKEKAIHMGGWDKVQDHFRAEKKDHALEVLHSIIHGQGRGEPGEMEVNVEDINKIYAFKRLQHLACPAHQDLFTIKMDASQTQFLLMVGDTVISQSNIKDILNISDDAVIESMSREERQLFLQICEVIGSKMTWHPELLQESISTLRKEVTGNAQIKTAVYEMMRPAEAPDHPLVEWQDSLTADEKSMLACINAGNFEPTTQFCKIGYQEVQGEVAFSMMHPCISYLLHSYSPFSEFKPTNSGFLKKLNQDYNDYHAKKMFIDVILEKLYLTHERSLHIGKDGCSRNILLT”, the “soluble on expression in E. coli” value is reported as “not soluble”. For “MPVVERTTFLAGYSPQQVLDFCLEGANFPKIFPERVTPLGGLDINDLRISVGRQFSFLHWMFGVIPAKWTVVIREVGDRHFVDEMLKGPLRAFRHEHRVEAAEGGTLYTDRVTYRAIGGAPLEWLMVNAYMARIFDARHRNMLRLLSLEHHHHHH”, the “soluble on expression in E. coli” value was “soluble”. In the case of “MPWKCYRDYNLESQILKYRTTADVIMKSMYKLEIESLKRELAEYRRGNNGSHSDCKYYDEEAREEVS”, the “soluble on expression in E. coli” value is reported as “not soluble”. For “MPYAIDFGTTNTVIARWNEATRQGNLIDLPSLSHPLGDSGPLVPSLLYVENAALGQVAIAREVLDRGRDISTDTRFFKNFKRGIGVAVQGFLPQLDGHTLSLETLGQWYLDKLIRILTEQEGQGPDCLALTVPVDSFESYRHWLSHTCRSWGVEEVRLVDEPTAAALGYGVGDASQILVLDFGGGTVDFSWVQLGDRGQKGRSGFLLKWGGILGGSKAEEKSALAKVLAKAGANLGGSDIDYWISEYFTEAQGLQVSPWIRRLAERLKIALGEAEEATEVYFDDQALESYEFQLRRSDLTEILQQRQFFERLTALWEQVQQTAQRRGLTPANLDAVLVVGGTSQLPMVQDWINAQFPAGKIRNQQPFGAIALGALQIYQGREVQDYLYHSYGVRYWNRRKNSHNWHPIIKNGQTYPMAEPIELTLGASLDNQPSIELIVGELGSSIGATEVYFDGNQLITRVLENQAFTVQPLNDRNGARQIAQLSPPGVPGGDRIKVKFWVDDQRYLRLTVEDLLQQKLLLENQVVAQLRLEHHHHHH”, the “soluble on expression in E. coli” value was “not soluble”. With “MPYEMKFKGVYVLAMEDNSSFKGKIEVGDTVTGVDGKSFKSSEELMNYIKAQKVNQKVTVQFIQDGKAKEATGKLIELPTDKKAGIGIGLTDHTLEHHHHHH” the “soluble on expression in E. coli” value was “soluble”. For “MPYLLEMKNITKTFGSVKAIDNVCLRLNAGEIVSLCGENGSGKSTLMKVLCGIYPHGSYEGEIIFAGEEIQASHIRDTERKGIAIIHQELALVKELTVLENIFLGNEITHNGIMDYDLMTLRCQKLLAQVSLSISPDTRVGDLGLGQQQLVEIAKALNKQVRLLILDEPTASLTEQETSILLDIIRDLQQHGIACIYISHKLNEVKAISDTICVIRDGQHIGTRDAAGMSEDDIITMMVGRELTALYPNEPHTTGDEILRIEHLTAWHPVNRHIKRVNDVSFSLKRGEILGIAGLVGAGRTETIQCLFGVWPGQWEGKIYIDGKQVDIRNCQQAIAQGIAMVPEDRKRDGIVPVMAVGKNITLAALNKFTGGISQLDDAAEQKCILESIQQLKVKTSSPDLAIGRLSGGNQQKAILARCLLLNPRILILDEPTRGIDIGAKYEIYKLINQLVQQGIAVIVISSELPEVLGLSDRVLVMHEGKLKANLINHNLTQEQVMEAALRSEHHVEKQSV”, the “soluble on expression in E. coli” value was “not soluble”. In the case of “MPYPKKVTIKEVGPRDGLQNEPVWIATEDKITWINQLSRTGLSYIEITSFVHPKWIPALRDAIDVAKGIDREKGVTYAALVPNQRGLENALEGGINEACVFMSASETHNRKNINKSTSESLHILKQVNNDAQKANLTTRAYLSTVFGCPYEKDVPIEQVIRLSEALFEFGISELSLGDTIGAANPAQVETVLEALLARFPANQIALHFHDTRGTALANMVTALQMGITVFDGSAGGLGGCPYAPGSSGNAATEDIVYMLEQMDIKTNVKLEKLLSAAKWIEEKMGKPLPSRNLQVFKSSLEHHHHHH”, the “soluble on expression in E. coli” value is reported as “soluble”. In the case of “MPYQQITVNVNDAVAERLADALMEHGALSAAIEDAYAGTQNEQAIFGEPGMPAEQIWQQSKVIALFGEHDEAAAIIQTATQECGLK”, the “soluble on expression in E. coli” value is reported as “not soluble”. In the case of “MPYVDRQNRICGFLDIEDNENSGKFLRRYFILDTQANCLLWYMDNPQNLAVGAGAVGSLQLTYISKVSIATPKQKPKTPFCFVINALSQRYFLQANDQKDLKDWVEALNQASKITVPKAGTVPLATEVLKNLTAPPTLEKKPQVAYKTEIIGGVVVQTPISQNGGDGQEGCEPGTHAFLRRSQSYIPTSGCRPSTGPPLIKSGYCVKQGNVRKSWKRRFFALDDFTICYFKCEQDREPLRTIPLKDVLKTHECLVKSGDLLMRDNLFEIITTSRTFYVQADSPEDMHSWIEGIGAAVQALKCHPREPSFSRSISLTRPGSSTLTSAPNSILSRRRPPAEEKRGLCKAPSVASSWQPWTPVPQAEEKPLSVEHAPEDSLFMPNPGESTATGVLASSRVRHRSEPQHPKEKPFVFNLDDENIRTSDV”, the “soluble on expression in E. coli” value is reported as “soluble”. For “MQARVKWVEGLTFLGESASGHQILMDGNSGDKAPSPMEMVLMAAGGCSAIDVVSILQKGRQDVVDCEVKLTSERREADTRLFTHINLHFIVTGRDLKDAAVARAVDLSAEKYCSVALMLEKAVNITHSYEVVAA”, the “soluble on expression in E. coli” value was “soluble”. For “MQASDRFNINSQLEHLQAKYVGTGHADLSRFEWAVNIQRDSYASYIGHYPMLSYFAIAENESIGRERYNFMQKMLLPCGLPPEREEE”, the “soluble on expression in E. coli” value was “soluble”. For “MQDDKKVAFPGDMIATTEEYLPGKNTEEKNGEIIAVKFGQIIRDDINLLISVDTQKKEFTLKKGDIVYGQVVKGEQHRYIVRIVGAFQKGLGLREIDEEMQLSLGIARRPQSDFIAIGDLIRGYVIRTGDFPEISINGNHYGVISAVCLRCRQPLVKRGITLYCENCQRTEIRKMADDYGNVDIFNYENRIQNQVKANGKRRLEHHHHHH”, the “soluble on expression in E. coli” value was “soluble”. With “MQDPYVKEAENLKKYFNAGHSDVADNGTLFLGILKNWKEESDRKIMQSQIVSFYFKLFKNFKDDQSIQKSVETIKEDMNVKFFNSNKKKRDDFEKLTNYSVTDLNVQRKAIDELIQVMAEFSTEEQQEGPYVKEAENLKKYFNAGHSDVADNGTLFLGILKNWKEESDRKIMQSQIVSFYFKLFKNFKDDQSIQKSVETIKEDMNVKFFNSNKKKRDDFEKLTNYSVTDLNVQRKAIHELIQVMAELSPAAKTGKRKRSQMLFRG” the “soluble on expression in E. coli” value was “soluble”. For “MQDTIFLKGMRFYGYHGALSAENEIGQIFKVDVTLKVDLSEAGRTDNVIDTVHYGEVFEEVKSIMEGKAVNLLEHLAERIANRINSQYNRVMETKVRITKENPPIPGHYDGVGIEIVRENK”, the “soluble on expression in E. coli” value was “soluble”. For “MQENPTVWLFDLDNTLHDADAGIFHLINRAMTRYMARRLKLSESAASDLRQDYWHRYGATLAGLQIHHPEIDIAEFLRESHPIDAILTRLHGMADTENTLCRLNGRKAVFSNGPSFYVRAVAGALGLENCFDALFGTDDFGLLYKPNPQAYLNVCRLLDVPPECCIMVDDSADNLHQAKALGMKTVRFGAKSHAPPFIDASVSDMAQLARYAETLSERRQNHYNTRTPRKYERMLCVKPSLS”, the “soluble on expression in E. coli” value was “not soluble”. For “MQERHTEQDYRALLIADTPIIDVRAPIEFEQGAMPAAINLPLMDNDERASVGTCYKQQGSDAALALGHKLVAGEIRQQRMYAWRAACLQNPQGILCCARGGQRSHIVQRWLHEAGIDYPLVEGGYKALRQTAIQATIELAQKPIVLIGGCTGSGKTLLVQQQPNGVDLEGLARHRGSAFGRTLQPQLSQASFENLLAAEMLKTDARQDLRLWVLEDESRMIGSNHLPECLRERMTQAAIAVVEDPFEIRLERLNEEYFLRMHHDFTHAYGDEQGWQEYCEYLHHGLSAIKRRLGLQRYNELAAQLDTALTTQLTTGSTDGHLAWLVPLLKEYYDPMYRYQLEKKAEKVVFRGEWAEVAVWVKAQLEHHHHHH”, the “soluble on expression in E. coli” value was “not soluble”.

Reference: the DeepSol protein solubility set
